This is an account of results in PMC12955825 (Med (New York, N.Y.), 2025).

Bridge positions count the residues as written; N and C are the ends. Ends that are not written are not given here.

In assay [1] the target is T1, histidine-rich glycoprotein (human, UniProt P04196 19-525).
T1 sequence (looked up): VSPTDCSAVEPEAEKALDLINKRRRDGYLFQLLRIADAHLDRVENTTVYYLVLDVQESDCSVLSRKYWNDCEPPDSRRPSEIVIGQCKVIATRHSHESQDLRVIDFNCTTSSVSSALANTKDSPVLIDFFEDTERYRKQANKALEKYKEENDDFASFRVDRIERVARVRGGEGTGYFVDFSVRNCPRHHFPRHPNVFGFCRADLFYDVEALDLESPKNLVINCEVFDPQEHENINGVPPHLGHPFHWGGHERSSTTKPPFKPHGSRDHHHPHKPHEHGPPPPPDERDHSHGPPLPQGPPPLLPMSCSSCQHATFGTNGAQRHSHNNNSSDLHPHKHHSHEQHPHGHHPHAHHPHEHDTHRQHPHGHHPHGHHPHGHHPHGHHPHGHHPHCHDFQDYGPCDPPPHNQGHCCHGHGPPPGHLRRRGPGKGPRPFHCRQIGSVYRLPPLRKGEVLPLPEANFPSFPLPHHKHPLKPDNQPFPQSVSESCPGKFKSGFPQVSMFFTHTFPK
Briefly: phage-binding assay.

The target of assay [2] is T2, cystatin-A (human, UniProt P01040 1-98).
T2 sequence (looked up): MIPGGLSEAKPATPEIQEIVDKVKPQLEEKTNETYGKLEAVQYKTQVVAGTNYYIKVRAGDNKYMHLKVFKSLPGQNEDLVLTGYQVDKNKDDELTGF
Briefly: phage-binding assay.

Assay [3] deals with T3, CALR, human recombinant protein (human, UniProt P27797 18-417).
T3 sequence (looked up): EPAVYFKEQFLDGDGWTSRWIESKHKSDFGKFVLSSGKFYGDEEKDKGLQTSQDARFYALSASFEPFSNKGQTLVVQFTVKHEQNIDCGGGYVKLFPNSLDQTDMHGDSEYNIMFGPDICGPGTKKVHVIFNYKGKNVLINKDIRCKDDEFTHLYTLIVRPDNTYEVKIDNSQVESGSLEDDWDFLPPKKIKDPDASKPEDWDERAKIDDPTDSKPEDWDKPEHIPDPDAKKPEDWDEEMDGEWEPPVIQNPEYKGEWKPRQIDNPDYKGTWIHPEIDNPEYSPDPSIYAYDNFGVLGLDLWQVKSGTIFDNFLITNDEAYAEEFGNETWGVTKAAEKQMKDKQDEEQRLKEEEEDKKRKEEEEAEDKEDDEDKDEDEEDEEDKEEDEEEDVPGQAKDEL
Briefly: circular dichroism.

In assay [4] the target is T4, CASQ1, human recombinant protein (human, UniProt P31415 35-396).
T4 sequence (looked up): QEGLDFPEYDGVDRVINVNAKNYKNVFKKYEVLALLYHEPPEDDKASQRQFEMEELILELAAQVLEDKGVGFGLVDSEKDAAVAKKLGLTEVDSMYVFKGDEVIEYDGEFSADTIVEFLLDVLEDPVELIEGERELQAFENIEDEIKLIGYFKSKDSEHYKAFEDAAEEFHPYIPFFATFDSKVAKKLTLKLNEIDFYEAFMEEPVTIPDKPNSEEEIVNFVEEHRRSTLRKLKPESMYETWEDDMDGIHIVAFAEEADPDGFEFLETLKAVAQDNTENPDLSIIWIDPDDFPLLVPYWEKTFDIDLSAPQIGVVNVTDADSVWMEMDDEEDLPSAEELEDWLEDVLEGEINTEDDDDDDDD
Briefly: phage-binding assay.

In assay [5] the target is HSP27, human recombinant protein (human, UniProt P04792 1-205). In words: phage-binding assay.
Sequence of HSP27, human recombinant protein (P04792 whole entry): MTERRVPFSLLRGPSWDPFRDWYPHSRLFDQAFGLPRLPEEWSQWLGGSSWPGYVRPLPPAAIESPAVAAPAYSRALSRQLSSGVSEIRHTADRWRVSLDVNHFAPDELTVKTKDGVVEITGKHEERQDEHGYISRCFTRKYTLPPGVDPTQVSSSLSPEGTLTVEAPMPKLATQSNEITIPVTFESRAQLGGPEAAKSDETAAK

B1: CVGQVGGRRC-displaying phage (peptide)
peptide: CVGQVGGRRC
modifications: disulfide 1-10
As for B1, the binding result in assay [1] is on record as “binds”.

B2: CEARASGSRC-displaying phage (peptide)
peptide: CEARASGSRC
modifications: disulfide 1-10
With B2, in assay [2], the binding result was “binds”.

B3: CRQRPASGC peptide (C1-C9 disulfide bridge) (peptide)
peptide: CRQRPASGC
modifications: disulfide 1-9
Take B3: the binding result in assay [3] is on record as “binds”.

B4: CLRGFPALVC peptide (C1-C10 disulfide bridge) (peptide)
peptide: CLRGFPALVC
modifications: disulfide 1-10
B4: the binding result in assay [4] is listed as “binds”.

B5: CSEIGVRAC peptide (C1-C9 disulfide bridge) (peptide)
peptide: CSEIGVRAC
modifications: disulfide 1-9
On to B5, for which the binding result in assay [5] is on record as “binds”.
